In patent publication US20250049939A1, “NOVEL FLT3 ANTIBODIES AND ANTIBODY-DRUG-CONJUGATES BASED THEREON, THERAPEUTIC METHODS AND USES THEREOF IN COMBINATION WITH TYROSINE KINASE INHIBITORS” (TUBULIS GmbH, priority 2021, published 2025):

What was measured:
hFLT3/S50P/P54R = target: T1, hFLT3/S50P/P54R (Homo sapiens, UniProt P36888, P54R/S50P); test: Cell surface binding to Ba/F3 epitope mutant FLT3, flow cytometry
T1 construct: expressed in transfected cells; host or cells: Ba/F3 cells, retrovirally transduced with MSCV-IRES-YFP (pMIY) vector
T1 sequence (P36888 27-993 S50P/P54R): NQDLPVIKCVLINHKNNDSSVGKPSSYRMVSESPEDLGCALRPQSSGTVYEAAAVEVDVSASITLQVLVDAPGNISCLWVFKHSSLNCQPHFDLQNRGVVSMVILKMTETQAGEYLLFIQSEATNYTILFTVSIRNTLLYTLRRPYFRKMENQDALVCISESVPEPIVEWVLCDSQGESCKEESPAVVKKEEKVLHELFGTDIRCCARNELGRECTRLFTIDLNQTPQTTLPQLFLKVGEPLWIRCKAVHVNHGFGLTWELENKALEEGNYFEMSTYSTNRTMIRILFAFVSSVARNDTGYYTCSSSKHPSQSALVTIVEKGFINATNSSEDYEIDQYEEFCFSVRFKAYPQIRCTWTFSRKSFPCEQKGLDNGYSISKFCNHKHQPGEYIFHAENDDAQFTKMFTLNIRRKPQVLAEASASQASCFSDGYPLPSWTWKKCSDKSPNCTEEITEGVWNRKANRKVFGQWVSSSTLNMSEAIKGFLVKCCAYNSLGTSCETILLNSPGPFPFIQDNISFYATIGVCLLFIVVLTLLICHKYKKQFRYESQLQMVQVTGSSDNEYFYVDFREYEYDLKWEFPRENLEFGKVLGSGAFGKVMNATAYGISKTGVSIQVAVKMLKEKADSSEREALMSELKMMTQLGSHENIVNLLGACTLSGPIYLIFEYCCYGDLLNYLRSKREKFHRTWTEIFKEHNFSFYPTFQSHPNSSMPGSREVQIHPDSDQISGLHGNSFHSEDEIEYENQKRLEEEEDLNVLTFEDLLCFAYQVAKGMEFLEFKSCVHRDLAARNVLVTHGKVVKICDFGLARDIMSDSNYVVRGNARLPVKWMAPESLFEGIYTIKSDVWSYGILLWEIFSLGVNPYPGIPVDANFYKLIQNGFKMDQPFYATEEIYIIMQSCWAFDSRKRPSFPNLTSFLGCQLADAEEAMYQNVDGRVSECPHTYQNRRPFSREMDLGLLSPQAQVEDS
Source text: FIG. 1: Evaluation of epitope specificity and internalization capability of anti-FLT3 monoclonal antibodies. (A) Affinity of seven anti-FLT3 monoclonal antibody (mab) clones to recombinant human FLT3 measured in enzyme-linked immunosorbent assay (ELISA) normalized to the binding of the antibodies to BSA control. […] (B) Schematic FLT3 receptor. Black arrows indicate common mutations and blue arrows indicate the three identified epitopes of seven anti-FLT3 antibodies analyzed in linear epitope mapping by PEPperPRINT. Figure was created with BioRender.com. (C) Binding and temperature induced internalization of anti-FLT3 antibodies in Ba/F3 cells expressing human wildtype FLT3. […] Remaining surface-bound antibody was detected in flow cytometry. […] MFI=mean fluorescence intensity. […] (D) Cell surface binding of 20D9 mab or control human IgG1 antibody to Ba/F3 cells stably expressing pMIY (Ba/F3-pMIY) empty vector (ev), human wildtype (hFLT3 wt) or ITD mutant human FLT3 (hFLT3ITD) was measured in flow cytometry. […] (E) Temperature induced internalization of 4B12 mab in MOLM-13 (FLT3 positive) cells after 30 min incubation at 37° C. compared to 4° C. and HL-60 (FLT3 negative) after 37° C. incubation assessed in immunofluorescence staining. […] (G) Cell surface binding of 20D9 mab or control hIgG1 antibody to Ba/F3-PMIY ev, hFLT3 wt or epitope mutant FLT3 (hFLT3/S50P/P54R) measured in flow cytometry. […]

human CD64 = target: T2, human CD64 (Homo sapiens, UniProt P12314); test: Cell surface binding to Ba/F3 human CD64, flow cytometry
T2 construct: host or cells: Ba/F3 cells, retrovirally transduced with MSCV-IRES-YFP (pMIY) vector
Description: For antibody binding studies, cells were stained on ice with primary mouse, rat or human anti-FLT3 antibodies (in house) and secondary antibody Goat F(ab′)2 Anti-Human Ig-PE (2012-09), Goat Anti-Mouse IgG (H+L)-PE (1032-09) or Goat Anti-Rat IgG (H+L)-PE (3052-09) purchased from Southern Biotech. For internalization experiments, cells incubated with anti-FLT3 antibodies were washed and incubated for 30 min at 4° C. or 37° C. followed by staining with secondary antibody.
Murine FLT3 (OMu21985D, Genescript), human CD64 (RC207487), CD32 (RC205786) and CD16 (RC206429), were purchased from Origene. Cynomolgues monkey FLT3 gene was synthesized from XM_015439107.1 by Eurofins. The constructs were cloned into retroviral expression vector MSCV-IRES-YFP (pMIY) using the In-Fusion HD Cloning Plus Kit (Takara Bio, Saint-Germain-en-Laye, France). All FLT3 point mutations were generated using the QuikChange II XL Site-Directed Mutagenesis Kit (Agilent Technologies, Santa Clara, CA, USA) and correct sequence was confirmed by Sanger sequencing. […]
For FLT3 expression analysis, cells were stained on ice with primary mouse anti-FLT3-AF647 antibodies for 30 min. […] Binding and expression were subsequently measured at the flow cytometer (BD FACSCanto II) and the results were evaluated with FlowJo version 10.8.1.

T2 sequence (P12314 16-374): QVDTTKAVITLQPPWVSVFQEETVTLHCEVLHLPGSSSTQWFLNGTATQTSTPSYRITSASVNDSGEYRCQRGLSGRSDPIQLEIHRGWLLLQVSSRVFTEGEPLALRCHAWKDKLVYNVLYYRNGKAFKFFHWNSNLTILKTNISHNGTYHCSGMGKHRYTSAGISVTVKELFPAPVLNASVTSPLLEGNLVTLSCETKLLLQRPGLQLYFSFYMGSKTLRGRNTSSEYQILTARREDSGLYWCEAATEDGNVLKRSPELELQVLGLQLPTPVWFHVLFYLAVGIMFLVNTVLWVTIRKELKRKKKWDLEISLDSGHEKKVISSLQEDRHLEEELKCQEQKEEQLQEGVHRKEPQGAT

- Binding to human FLT3 with epitope region mutated to murine variant (S50P/P54R) (hFLT3/S50P/P54R): not able to bind
- Binding to Fc receptor CD64 via the IgG1 backbone (human CD64): verified the binding
B1: 20D9: chimeric (rat variable regions, human IgG1) anti-FLT3 monoclonal antibody; VH SEQ ID NO: 5, VL SEQ ID NO: 6 (antibody, V domains shown)
VH: DVMLVESGGGLVQPGRSLKLSCVASGFTFNNYWMTWIRQAPGKGLEWIASITKTGGGTYYPDSVKGRFTISRDNAKSTLYLQMNSLRSEDTATYYCTTLQQLGVMDAWGQGASVTVSSA
VL: DVQMTQSPSVLSASVGDRITLNCKASQNINKELNWYQQKLGEAPKLLIYNTNNLQTGIPSRFSGSGSGTDYTLTISSLQPEDVATYFCFQHKSWPLTFGSGTKLEIKR
modifications: Clone 20D9, heavy chain variable region without a signal seqeunce; Clone 20D9, light chain variable region without a signal seqeunce
